The text below walks through data of patent US20100209425A1.

The target in experiment [1] is hen-egg lysozyme (HEL) from chicken egg white (chicken) (UniProt P00698). The experiment is described as follows: yeast display immunoprecipitation with 5x10^7 yeast from RBE4 lysate holding 34 nM HEL, gel densitometry.
Experiment [2] shares this target. As to the kind of experiment: flow cytometry titration of biotinylated HEL on yeast-displayed D1.3 scFv; PBS with n-octyl-beta-D-glucopyranoside. Background: In flow cytometry, cells or beads pass a laser one at a time.
For experiment [3] the target is unchanged. As to the kind of experiment: flow cytometry titration of biotinylated HEL on yeast-displayed D1.3 scFv; PBS with Triton X-100.
The target is the same in experiment [4]. The experiment is described as follows: flow cytometry titration of biotinylated HEL on yeast-displayed D1.3 scFv; PBS with BSA.

Sequence of UniProt P00698 (P00698 19-147): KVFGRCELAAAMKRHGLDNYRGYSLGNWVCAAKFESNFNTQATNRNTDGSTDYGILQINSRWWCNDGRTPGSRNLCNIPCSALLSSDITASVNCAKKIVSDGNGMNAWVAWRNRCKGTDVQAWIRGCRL

For orientation: Kd means the free concentration of one partner at which half of the binding sites on the other are occupied at equilibrium, for simple one-to-one binding. A low value points to tighter binding. Regarding “anti-hen egg lysozyme D1.3 scFv displayed on yeast”, the percent of the theoretical immunoprecipitation yield in experiment [1] amounted to 70%. The Kd was found to be 2.61 nM in experiment [2], 0.488 nM in experiment [3] and 1.07 nM in experiment [4].
